From EP4578463A1, “ENDO-180 TARGETED ANTIBODY-DRUG CONJUGATES” (Oncomatryx Biopharma, S.L., priority 2023, dated 2025) come the findings set out here.

For assay [1], the target named is T1, Endo180 on cells (Endo180-expressing HT1080-WT cells; Endo180-transfected HEK293-Endo180 cells) (UniProt Q9UBG0 31-1479).
T1 construct: whole, on cells; One molecule is used for the endogenous protein on HT1080-WT and the transfected protein on HEK293-Endo180; also called uPARAP
T1 sequence (looked up): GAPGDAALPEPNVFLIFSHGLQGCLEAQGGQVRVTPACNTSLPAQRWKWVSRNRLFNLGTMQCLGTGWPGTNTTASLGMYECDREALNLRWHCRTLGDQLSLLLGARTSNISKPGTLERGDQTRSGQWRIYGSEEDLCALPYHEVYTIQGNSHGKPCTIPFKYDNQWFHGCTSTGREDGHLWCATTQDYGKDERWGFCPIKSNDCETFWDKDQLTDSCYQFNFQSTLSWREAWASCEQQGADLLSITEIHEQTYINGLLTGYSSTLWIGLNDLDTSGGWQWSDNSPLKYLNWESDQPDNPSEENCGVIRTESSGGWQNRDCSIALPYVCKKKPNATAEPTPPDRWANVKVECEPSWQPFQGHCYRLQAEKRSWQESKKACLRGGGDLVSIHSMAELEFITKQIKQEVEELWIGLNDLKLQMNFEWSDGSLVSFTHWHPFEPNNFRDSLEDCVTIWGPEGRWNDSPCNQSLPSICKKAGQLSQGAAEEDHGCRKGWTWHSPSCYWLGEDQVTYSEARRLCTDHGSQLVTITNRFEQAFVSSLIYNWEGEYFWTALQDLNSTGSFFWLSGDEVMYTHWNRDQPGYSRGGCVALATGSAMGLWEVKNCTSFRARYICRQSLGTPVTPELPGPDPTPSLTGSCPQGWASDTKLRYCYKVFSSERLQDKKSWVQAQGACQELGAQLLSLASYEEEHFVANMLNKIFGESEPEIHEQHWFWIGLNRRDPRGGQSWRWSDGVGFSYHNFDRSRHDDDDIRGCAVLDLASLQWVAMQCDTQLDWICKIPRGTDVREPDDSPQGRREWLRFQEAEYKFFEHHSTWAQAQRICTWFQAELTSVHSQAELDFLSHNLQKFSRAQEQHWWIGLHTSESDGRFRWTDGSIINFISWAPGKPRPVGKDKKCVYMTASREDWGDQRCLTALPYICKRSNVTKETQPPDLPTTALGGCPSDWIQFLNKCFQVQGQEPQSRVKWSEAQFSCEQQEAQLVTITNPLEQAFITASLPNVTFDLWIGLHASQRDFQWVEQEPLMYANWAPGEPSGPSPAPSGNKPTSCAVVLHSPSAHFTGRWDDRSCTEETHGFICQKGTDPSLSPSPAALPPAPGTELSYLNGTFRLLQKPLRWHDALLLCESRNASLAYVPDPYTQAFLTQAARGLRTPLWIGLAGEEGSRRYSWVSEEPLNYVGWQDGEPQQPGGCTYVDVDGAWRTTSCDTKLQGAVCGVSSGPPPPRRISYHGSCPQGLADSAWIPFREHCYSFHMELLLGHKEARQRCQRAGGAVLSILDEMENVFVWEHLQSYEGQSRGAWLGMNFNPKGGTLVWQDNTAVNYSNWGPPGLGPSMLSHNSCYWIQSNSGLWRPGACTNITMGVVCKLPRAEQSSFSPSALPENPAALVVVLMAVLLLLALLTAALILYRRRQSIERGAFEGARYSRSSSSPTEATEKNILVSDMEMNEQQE
Put plainly: flow cytometry on HT1080-WT cells.

Assay [2] has as its target T2, human Endo180-moFc DI-DIV variant region 4 (D304S, T305F, S306N) (human, UniProt Q9UBG0 31-513).
T2 construct: not shown: murine Fc
T2 chain: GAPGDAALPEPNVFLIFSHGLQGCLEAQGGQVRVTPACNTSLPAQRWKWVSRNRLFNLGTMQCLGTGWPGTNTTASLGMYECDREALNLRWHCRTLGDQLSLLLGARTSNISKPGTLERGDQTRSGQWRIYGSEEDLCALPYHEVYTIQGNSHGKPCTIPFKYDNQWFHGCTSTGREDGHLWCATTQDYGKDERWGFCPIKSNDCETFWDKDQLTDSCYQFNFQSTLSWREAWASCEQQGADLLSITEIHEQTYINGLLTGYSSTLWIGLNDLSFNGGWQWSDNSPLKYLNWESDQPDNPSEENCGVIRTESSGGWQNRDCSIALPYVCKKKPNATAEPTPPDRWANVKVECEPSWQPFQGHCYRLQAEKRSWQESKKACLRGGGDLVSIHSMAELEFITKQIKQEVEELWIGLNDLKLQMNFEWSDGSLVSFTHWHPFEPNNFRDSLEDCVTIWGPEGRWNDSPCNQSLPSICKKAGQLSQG
Put plainly: ELISA, 10 nM IgG on immobilized variant (3 µg/ml). On the technique in general: ELISA stands for enzyme-linked immunosorbent assay.

The target of assay [3] is T3, human Endo180-moFc domains I-II (aa 31-232) (human, UniProt Q9UBG0 31-232).
T3 construct: also called huEndo180-moFc DI-II; not shown: murine Fc domain
T3 sequence: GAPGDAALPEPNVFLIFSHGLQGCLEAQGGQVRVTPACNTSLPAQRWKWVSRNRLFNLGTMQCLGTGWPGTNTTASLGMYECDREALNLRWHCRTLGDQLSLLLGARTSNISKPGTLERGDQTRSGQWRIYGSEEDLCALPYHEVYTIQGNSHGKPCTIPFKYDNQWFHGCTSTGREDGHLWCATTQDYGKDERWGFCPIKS
The assay can be described thus: ELISA, immobilized human Endo180-moFc domains.

Assay [4] has as its target T4, human Endo180-moFc domain I (aa 31-173) (human, UniProt Q9UBG0 31-173).
T4 construct: also called huEndo180-moFc DI; not shown: murine Fc domain
T4 sequence: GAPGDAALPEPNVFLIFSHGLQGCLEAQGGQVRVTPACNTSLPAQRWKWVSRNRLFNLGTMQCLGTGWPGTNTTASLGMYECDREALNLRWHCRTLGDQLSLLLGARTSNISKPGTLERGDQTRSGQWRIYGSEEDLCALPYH
The assay can be described thus: ELISA, immobilized human Endo180-moFc domains.

Usually EC50 stands for the concentration at which the effect is half-maximal. Low readings indicate higher potency in that assay, high ones lower potency in that assay.

B1: Human IgG1 G7V with a wildtype γ1 heavy chain (antibody, V domains shown)
VH: EVQLVESGGGLVKPGGSLRLSCAASGFTFSSYSMNWVRQAPGKGLEWVANIKPDGSERHSVDSVKGRFTISRDNSKNSLYLQMNSLRAEDTAVYYCARPGAGRLDYWGQGTLVTVSS
VL: SSELTQDPAVSVALGQTVRITCQGDSLRSYYASWYQQKPGQAPVLVVYGKNNRPSGIPDRFSGSSSGNTASLTITGAQAEDEADYYCNSRDSSGNPWAFGGGTKVTVLG
notes: Naked antibody, made in HEK293-6E (lab scale) or CHO (1 L scale); also called IgG G7V; OMTX007-G7V
As for B1, in assay [1], the EC50 was determined as 0.4 nM. Further, the results for the binding result in assay [2], in assay [3] and in assay [4] were “binds”, “no binding (tested: titrated from 0.1 pM to 100 nM)” and “no binding (tested: titrated from 0.1 pM to 100 nM)”, respectively.
